Drawing on a protein production outcome set (Wang et al. 2014), this text covers protein production for 17 sequences.

This series in a line: label from the status in PepcDB records.
Regarding “ATAPTPASSETLSGNPALPPPVPGERHDIDSFGGRLTYWSAAPAEPTSEPPLLLIHSVNAAGSAYEVRPIFEHYARSRPVYAIELPGFGHSSRAKRQYTIRMMTDAVHSVVAEIQKVHADKRIDALALSLGSEFLARAASETPQAFRSLALVAPTGFDKKNQRWTAGSRAIPWLHSFFENPVWSESIFKLLTMKPVIGWFLKKAFGSPSIDQGMLDYDYLTTHQPGAQHAPYYFVSGYLFSQDILRIYQDLPMPVWFSHGVRGDFVDYTLKTTVEGRPNWTVTVFQTGAMPHFEVPGEFMRAYDEFLGRVTKA”, the protein production result is given as “failed”.
The entry for “MILSMSIFGSIGFFSVQTGLPSFELVFVRCICATIFLALCWLVTGQYKSEQWNKKEIMQILACGVFLVFNWVFLFKAFEVMSITIAISVYHLAPIIVLMIGSIVFKERLTMFAVLSIVICFIGTVLVAGVDGSLSLEKLMSSGMVWALLAALFYAFTTLLGKGIQHTSAYAMTFLQTFLGIFLLLPFVDFGKFQGLTEMNWMMITATGLIHTGFVYYLFFDSLRDLSTRMISVLVFLDPAVAILLDTVFTGFRPTSMQVVGIVLIFVGMAFTFRKTKDEEIAVKEKLYS” is “failed”; for “KLKKKEYEQELKKLQVELVKLQEWVKHKGLKVVVLFEGRDAAGKGGVIKRITEKLNHRVCRVVALPAPTEKEKTQWYFQRYVAHLPSAGEIVLFDRSWYNRAGVEKVMGFCTPDEYEEFLRSCPEFERMLQRSGIILLKYWFSVSDEEQEKRFLGRINTPIKRWKFSPMDLESRHRWAEYSEAKDKMFAYTDTKNCPWWVVPSDSKQKARLNCISHLLSQIEYKALEYP” it is “not failed”.
The result for “MDLKEIVQAGAFDLHIHTTASDGEYSPTAIVKKAKEIGLRTIAITDHDTLDGIEEAVIAGKRHGINVIPAIELTTKYKGTNVDILGYNVKASEKLQAILVQLKKHREGRAMQIIEKFNDIGFTITLDEVKQFSEDGVIARPHIAKAIVKKGYVLDYQTVFDEYLADGKPCAIDKMILTPEEGIKLIHEAGGKAILAHPVYLEDTLVRELLALDFDGIEVWHRNHDETDQEKYKMLATEFALIKTGGSDFHTDEHSLGQFGWKADEE” reads “failed”; that for “MGSSHHHHHHSSGLVPRGSHDSAQSDLKEVMVLNATESFVYEPKEQKKMFHATVATENEVFRVKVFNIDLKEKFTPKKIIAIANYVCRNGFLEVYPFTLVADVNADRNMEIPKGLIRSASVTPKINQLCSQTKGSFVNGVFEVHKKNVRGEFTYYEIQDNTGKMEVVVHGRLTTINCEEGDKLKLTCFELAPKSGNTGELRSVIHSHIKVIKTRK”, “not failed”.
In the case of “MLKERILSAIAMIIAVLAGIFLLSPLPFTLILAAVITAAIWEWAQFAGFKRSLSRAIITFVTICLFILLIFANTHYIRAGRFLTDQTIPLLFISCCWWLIAFGLVISYPKSASLWSKSITAKFIFGFCTLIPFFIAILALRFNNYAFNQFQGAYLLLYVCLLVWCADSGAYFFGRAFGKRKLAAKVSPSKSWEGALGGLITSCVMALLFIKLTPNNIFGREFETLPFIIVSVATVAVSSLGDLAESMFKRQANIKDSSNLIPGHGGILDRIDSLTAAIPFFATLFFFVL”, the protein production result is “failed”.
In the case of “MRTICVFNNKGGVGKTTLLCNLAAYFSIKRGKKVLVVDADPQCNATAYMIKEKVLDKLYASSSSDSATINSLIASLKKSKGYGIPPVLRSDGFNVDIVPGDPKFSLAEDFLAKDWLDAIAGDERGLRTTFFFRNLISWARSDGYDLVFFDMGPSLGAINRTVLLSSDHFILPMSSDIFSLRGLQNIEVALKNWTKGIERGLVSFKEDQGTSFKVESGDALSELGVSFLGYVTQQYTAKTVDGKKQPVSAYEKIIKKIDPLVSKHLILPLNKGQKLNYKLGEIPYFQSLVPMAQTATVPIFALKKADGVVGAHFDKVRQFDSVISGIVDKIEANMNSKGN”, the protein production result is reported as “failed”.
The result for “MAEILRLSPAICAYPDETYENLKIEVVLPGVEKENISFKVVEDGFYVKATKEGVEYTDSYAVCCPISPEKATATYSNGVLKVNVPYQQPFEKAVDVKIE” reads “failed”; that for “MIKSTNIQAIGSGIMHQINNVYSLTPLSLPMELTPSCNEFYLKTWSEWEKNGTPGEQRNIAFNRLKICLQNQEAELNLSELDLKTLPDLPPQITTLEIRKNLLTHLPDLPPMLKVIHAQFNQLESLPALPETLEELNAGDNKIKELPFLPENLTHLRVHNNRLHILPLLPPELKLLVVSGNRLDSIPPFPDKLEGLALANNFIEQLPELPFSMNRAVLMNNNLTTLPESVLRLAQNAFVNVAGNPLSGHT”, “failed”; that for “ILKEYSKLLSFNAQKYYLVGAEKEDLVQEGILGLLKAIKFYDETKSSFSSFAFLCIRREMISAIRKANTQKHMVLNEALKTNAILEDSAYFDDEGHNINNYKSSESNPEEAYLLKEEIEEFKKFSENNFSKFEKEVLTYLIRGYSYREIATILSKNLKSIDNTIQRIRKKSEEWIK”, “failed”.
For “MSDATNNAVLVRNLSPEVTKQTLLDFFSFCGEISAVKIRPSVGEGGSSSSGSPTEAMEALVIFENQSAKKTALVLDSATLKKRKISVMDATEELVSSFKDVREVDLARDSTDVPETATARQERLQGLREEFDRAIKRASDKLSDFNEKHRITEKVQEFGDLTKRKTQEINEQYRLTERAREGWQTVREKTRELDERLHLSESARDGWRSLKASVSKIMQKDRGGEVDKA”, the protein production result is reported as “not failed”.
In the case of “MGTKVSDMQKNVTPGRRKGCPNYPPEFKQQLVAASCEPGISISKLALENGINANLLFKWRQQWREGKLLLPSSESPQLLPVTLDAAAEQPESLAEDPETLSISCEVTFRHGTLRFNGNVSEKLLTLLIQELKR”, the protein production result is listed as “failed”.
In the case of “MAEGKPDEQLFQLLSGLLQQVESLTNTEEVELRSKIEALGLEVTKVPSKSAQHLNEVEIAKELDKLSAKLDDVDEMISSAIASDPQVQTLLSGTADVWMPVITAGAEERLNFTASLADDDDLSNKETTTDNTSSS”, the protein production entry is on record as “not failed”.
The result for “EMTDLQSTHKNFLFEIEEVGIKNLTYPVLIDQYQTAGLFSFSTSLNKNEKGINMSRILESVEKHYDNGIELEFNTLHQLLRTLQDKMNQNAAGVDVSGKWFFDRYSPVTNIKAVGHADVTYGLAIENHTVTRKELTIQAKVTTLCPCSKEISEYSAHNQRGIVTVKAYLDKNNDVIDDYKDKILDAMEANASSILYPILKRPDEKRVTERAYENPRFVEDLIRLIAADLVEFDWIEGFDIECRNEESIHQHDAFARLKYRK” reads “not failed”; that for “MESTKQEEQGIYAATPPATGLLERLFKLRQHGTTVRTELAAGLTTFITMAYIIFVNPNIMADAGIDHGAAFVATCLAAALGCFLMGLYANWPVGLAPGMGLNAFFTYTVVGTMGYSWQIALGAVFISGVMFMLLTFSRVREWLLNSIPRSLRFAMGAGVGLFLGLIGLKTAGIVVASPATLIKLGHLTSPGPLLAALCFLMIAVLEYRRVFGGILISILSVTLVGWALGLVQYGGVFSAPPSLAPTFLAMDIAGAFNVTMISVILAFLFVHMFDTAGTLMGVAQRAHLVKEDGRIENLSKAMKADSASSVFGGMLGVPPVTSYVESAAGVAAGGRTGLTAVVVGVLFVAAMFFAPLAGMIPAFATAGALIYVAMLMMGGMAHIDWDEHTETIPAIVTVIMMPLTFSVADGIALGFITYVAMKVLTGKHREVSASLYALFVIFVAKFIFL”, “failed”; that for “MNLAKGLDVLKISSNVLGEDKVMYIPAIYTEDDATLIDTGLPGQGDLIIDALNKSNTSFDRLKNIIITHHDIDHIGNINYLREKSKNNIKVYAYKSEVSYITGEETPFKLYMLEQMVDKIDDKMLSMLNVMGLGFKSSYTKVDVSLDNHEKLNLGEEIEVIHTGGHTRGHICLYLKESKVLIAGDLLQVENGELKPVDVMHSNKQELKDAIKNISNYDIETIVFSHGGLYQRNIIETLKNLIIE”, “failed”.
Take “ERIRYESQIKRFNRIMDTTMENIPAGIVVKDIENDFRYIYRNRESYNRDISSENAIGMNDFDYYPPEMAQQKRKEDMEIAATGKGMHWIMEGKDKNGNLLILDKQKIMVESEDFSPIIVSIEWDIT”: the protein production entry was “failed”.
